Results published in article PMC8934646, “The intrinsically disordered TSSC4 protein acts as a helicase inhibitor, placeholder and multi-interaction coordinator during snRNP assembly and recycling” (Nucleic Acids Research, 2022).

Biological target: T1, SNRNP200 helicase region (SNRNP200^HR) (human, UniProt O75643 395-2129)
T1 construct: human SNRNP200 helicase region, residues 395-2129
Assay: SEC; competitive binding: 5 μM pre-formed SNRNP200^HR-FBP21^200–376 or SNRNP200^HR-C9ORF78 complex incubated with 5 μM GST-TSSC4 in 50 μl, 10 min on ice, then analytical SEC as in a1
Conditions: both partners purified

T1 sequence (O75643 395-2129): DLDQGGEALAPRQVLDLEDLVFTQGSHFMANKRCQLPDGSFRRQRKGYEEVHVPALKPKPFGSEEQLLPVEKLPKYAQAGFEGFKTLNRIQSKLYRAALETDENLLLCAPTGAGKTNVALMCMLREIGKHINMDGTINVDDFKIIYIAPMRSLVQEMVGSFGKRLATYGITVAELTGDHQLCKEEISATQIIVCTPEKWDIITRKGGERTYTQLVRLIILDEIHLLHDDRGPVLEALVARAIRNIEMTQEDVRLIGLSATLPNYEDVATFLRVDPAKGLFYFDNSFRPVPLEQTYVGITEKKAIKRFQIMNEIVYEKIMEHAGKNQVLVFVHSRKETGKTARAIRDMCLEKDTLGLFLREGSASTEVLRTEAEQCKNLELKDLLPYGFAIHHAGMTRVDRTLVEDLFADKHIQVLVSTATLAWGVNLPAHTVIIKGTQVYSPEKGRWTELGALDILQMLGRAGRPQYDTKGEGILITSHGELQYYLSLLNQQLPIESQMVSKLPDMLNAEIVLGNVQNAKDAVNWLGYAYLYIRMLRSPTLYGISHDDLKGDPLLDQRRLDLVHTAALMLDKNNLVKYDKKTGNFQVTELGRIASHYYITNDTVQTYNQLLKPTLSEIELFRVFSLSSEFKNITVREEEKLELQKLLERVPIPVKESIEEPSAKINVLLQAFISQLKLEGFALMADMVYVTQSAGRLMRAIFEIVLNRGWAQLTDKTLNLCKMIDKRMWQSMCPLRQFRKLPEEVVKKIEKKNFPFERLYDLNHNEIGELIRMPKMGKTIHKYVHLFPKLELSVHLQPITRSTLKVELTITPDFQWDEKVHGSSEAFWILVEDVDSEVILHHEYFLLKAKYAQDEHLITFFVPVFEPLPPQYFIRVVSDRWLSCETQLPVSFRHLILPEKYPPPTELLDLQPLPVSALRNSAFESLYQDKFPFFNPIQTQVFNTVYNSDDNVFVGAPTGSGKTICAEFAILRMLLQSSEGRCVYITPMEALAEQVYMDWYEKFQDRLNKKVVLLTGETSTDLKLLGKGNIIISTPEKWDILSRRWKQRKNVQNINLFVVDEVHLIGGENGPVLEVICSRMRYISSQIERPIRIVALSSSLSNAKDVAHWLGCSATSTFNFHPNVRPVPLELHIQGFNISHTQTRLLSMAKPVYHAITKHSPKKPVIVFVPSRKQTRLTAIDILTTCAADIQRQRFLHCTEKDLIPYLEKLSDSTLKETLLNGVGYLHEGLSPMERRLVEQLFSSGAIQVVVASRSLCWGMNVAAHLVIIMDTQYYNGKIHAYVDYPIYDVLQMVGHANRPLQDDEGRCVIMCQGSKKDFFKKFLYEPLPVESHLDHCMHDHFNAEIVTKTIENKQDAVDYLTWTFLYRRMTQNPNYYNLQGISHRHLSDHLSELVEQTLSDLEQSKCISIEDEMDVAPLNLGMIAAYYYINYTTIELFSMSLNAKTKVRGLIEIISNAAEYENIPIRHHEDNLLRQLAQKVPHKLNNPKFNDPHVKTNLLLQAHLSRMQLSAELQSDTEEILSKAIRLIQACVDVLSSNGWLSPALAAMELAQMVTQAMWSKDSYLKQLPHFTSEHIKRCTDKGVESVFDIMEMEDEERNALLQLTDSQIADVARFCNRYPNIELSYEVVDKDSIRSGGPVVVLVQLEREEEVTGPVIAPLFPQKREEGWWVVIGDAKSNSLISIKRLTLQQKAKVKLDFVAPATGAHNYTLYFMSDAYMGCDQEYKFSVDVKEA

B1: C-terminal fragment of FBP21 (FBP21^200–376) (domain or fragment, human, UniProt O75554 200-376, looked up)
chain: HTSDLPSSKVNENSLGTLDESKSSDSHSDSDGEQEAEEGGVSTETEKPKIKFKEKNKNSDGGSDPETQKEKSIQKQNSLGSNEEKSKTLKKSNPYGEWQEIKQEVESHEEVDLELPSTENEYVSTSEADGGGEPKVVFKEKTVTSLGVMADGVAPVFKKRRTENGKSRNLRQRGDDQ
  binding result: binds
